Measurements taken from US20200017592A1 (Regeneron, published 2020).

T1: human IL-36R extracellular domain expressed with a C-terminal mouse IgG2a Fc tag (hIL-36R-mFc) (human; mouse, UniProt Q9HB29 20-337)
T1 construct: not shown: mouse IgG2a Fc, E98-K330
T1 sequence (looked up): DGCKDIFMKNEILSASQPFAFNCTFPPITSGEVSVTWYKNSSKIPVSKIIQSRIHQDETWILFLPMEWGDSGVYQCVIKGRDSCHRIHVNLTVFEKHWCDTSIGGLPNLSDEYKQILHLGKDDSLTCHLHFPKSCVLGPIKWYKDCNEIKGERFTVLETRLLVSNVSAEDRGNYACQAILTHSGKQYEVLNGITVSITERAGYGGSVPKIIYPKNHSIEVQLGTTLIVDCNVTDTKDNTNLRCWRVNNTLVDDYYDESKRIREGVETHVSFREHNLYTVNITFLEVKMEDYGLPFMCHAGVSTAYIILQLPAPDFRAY

T2: in-line fusion protein of human IL-36R extracellular domain and IL1RAcP extracellular domain expressed with … (human; mouse, UniProt Q9HB29 20-337; Q9NPH3 21-359, limits assumed)
T2 construct: not shown: mouse IgG2a Fc
T2 sequence (looked up): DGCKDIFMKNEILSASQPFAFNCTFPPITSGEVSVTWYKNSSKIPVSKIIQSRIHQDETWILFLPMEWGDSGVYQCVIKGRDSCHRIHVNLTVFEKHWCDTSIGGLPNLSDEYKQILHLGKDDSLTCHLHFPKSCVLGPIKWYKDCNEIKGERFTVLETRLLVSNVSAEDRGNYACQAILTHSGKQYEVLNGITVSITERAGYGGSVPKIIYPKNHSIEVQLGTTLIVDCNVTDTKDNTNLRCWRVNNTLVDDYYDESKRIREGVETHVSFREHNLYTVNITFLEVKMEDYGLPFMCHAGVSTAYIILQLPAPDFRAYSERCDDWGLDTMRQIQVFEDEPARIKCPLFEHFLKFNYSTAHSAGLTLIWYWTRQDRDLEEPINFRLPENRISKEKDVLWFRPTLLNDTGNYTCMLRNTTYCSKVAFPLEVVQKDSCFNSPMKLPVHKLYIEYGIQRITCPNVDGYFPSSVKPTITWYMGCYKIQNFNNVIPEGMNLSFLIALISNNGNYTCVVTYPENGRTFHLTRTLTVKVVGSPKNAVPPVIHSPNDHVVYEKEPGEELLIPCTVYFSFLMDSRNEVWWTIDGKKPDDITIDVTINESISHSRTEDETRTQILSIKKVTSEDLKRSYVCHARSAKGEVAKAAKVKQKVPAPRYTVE


Experiments:
[1] = target: T1, human IL-36R extracellular domain …; experiment: SPR Biacore 4000, mAb captured on anti-hFc, 25C
Protocol: (§1) Equilibrium dissociation constants (KD values) for IL-36R binding to purified anti-IL-36R antibodies were determined using a real-time surface plasmon resonance biosensor using a Biacore 4000 instrument. The Biacore sensor surface was first derivatized by amine coupling with a monoclonal mouse anti-human Fc antibody (GE, # BR-1008-39) to capture anti-IL-36R monoclonal antibodies. All binding studies were performed in 0.01 M Hepes pH 7.4, 0.15 M NaCl, 3 mM EDTA, and 0.05% v/v Surfactant Tween-20 (HBS-ET running buffer) at 25° C. and 37° C. Different concentrations of IL-36R reagents, human IL-36R extracellular domain expressed with a C-terminal myc-myc-hexahistidine tag (hIL-36R-MMH), Macaca fascicularis IL-36R extracellular domain expressed with a C-terminal myc-myc-hexahistidine tag (mfIL-36R-MMH: mROR1 signal sequence (M1-A29). Macaca fascicularis IL36R_ecto domain (D20-A336).mycmycHis6), human IL-36R extracellular domain expressed with a C-terminal mouse IgG2a Fc tag (hIL-36R-mFc: mROR1 signal sequence (M1-A29)-human IL36R (D20-Y337)-mouse IgG2aFc (E98-K330)) or an in-line fusion protein of human IL-36R extracellular domain and IL1RAcP extracellular domain expressed with mouse IgG2a Fc tag (hIL-36R-Trap-mFc: mROR1 signal sequence (M1-A29)-human IL36R ecto domain (D20-Y337)-human IL1RacP ecto domain(S21-E359)-mouse IgG2aFc) in HBS-ET running buffer (ranging from 100 nM to 3.7 nM, 3-fold dilutions) were injected over the anti-IL-36R antibody captured surface for 4 minutes at a flow rate of 30 μL/minute and their dissociation in HBS-ET running buffer was monitored for 10 minutes. Kinetic association rate constant (kₐ) and dissociation rate constant (kd) were determined by fitting the real-time sensorgrams to a 1:1 binding model using Scrubber 2.0c curve fitting software. Binding dissociation equilibrium constants (KD) and dissociative half-lives (t_{1/2}) were calculated from the kinetic rate constants as: […]

[2] = target: T2, in-line fusion protein of human IL-36R …; experiment: SPR Biacore 4000, mAb captured on anti-hFc, 25C
Protocol: as §1

[3] = target: T1, human IL-36R extracellular domain …; experiment: SPR Biacore 4000, mAb captured on anti-hFc, 37C
Protocol: as §1

[4] = target: T2, in-line fusion protein of human IL-36R …; experiment: SPR Biacore 4000, mAb captured on anti-hFc, 37C
Protocol: as §1

[5] = target: T3, human IL-36R extracellular domain expressed with a C-terminal myc-myc-hexahistidine tag (hIL-36R-MMH) (human, UniProt Q9HB29 20-337); experiment: SPR Biacore T200, mAb captured on anti-hFc, 25C, PBS-T pH 6.0 running buffer
T3 construct: also called Human IL-36R-MMH; REGN2105
Protocol: (§2) Additional binding experiments were performed to determine the effect of pH on the rate of dissociation of IL-36R bound to purified anti-IL-36R antibodies, which was determined using a real-time surface plasmon resonance biosensor using a Biacore T200 instrument. The Biacore sensor surface was first derivatized by amine coupling with a monoclonal mouse anti-human Fc antibody (GE, # BR-1008-39) to capture anti-IL-36R antibodies. […] Different concentrations of hIL-36R-MMH and mfIL-36R-MMH prepared in PBS-T, pH7.4 buffer (ranging from 100 nM to 11.11 nM, 3-fold dilutions) were injected over the anti-IL-36R antibody captured surface for 4 minutes at a flow rate of 50 μL/minute and their dissociation in two running buffers, PBS-T, pH7.4 and PBS-T, pH 6.0, was monitored for 10 minutes. All of these binding kinetics experiments were performed at 25° C. and 37° C. Kinetic dissociation constant (kd) were determined by fitting the real-time sensorgrams to a 1:1 binding model using Scrubber 2.0c curve fitting software. Binding dissociative half-lives (t_{1/2}) were calculated from kd as: […]

[6] = target: T3, human IL-36R extracellular domain …; experiment: SPR Biacore T200, mAb captured on anti-hFc, 25C, PBS-T pH 7.4 running buffer
Protocol: as §2

[7] = target: T3, human IL-36R extracellular domain …; experiment: SPR Biacore T200, mAb captured on anti-hFc, 37C, PBS-T pH 6.0 running buffer
Protocol: as §2

[8] = target: T3, human IL-36R extracellular domain …; experiment: SPR Biacore T200, mAb captured on anti-hFc, 37C, PBS-T pH 7.4 running buffer
Protocol: as §2

100 nM hIL-36R-mFc Bound (RU) [1] [RU] | Kd [1] [nM] | koff [1] [s⁻¹] | kon [1] [M⁻¹ s⁻¹] | t1/2 [1] [min] | 100 nM hIL-36R-Trap-mFc Bound (RU) [2] [RU] | Kd [2] [nM] | koff [2] [s⁻¹] | kon [2] [M⁻¹ s⁻¹] | t1/2 [2] [min] | 100 nM hIL-36R-mFc Bound (RU) [3] [RU] | Kd [3] [nM] | koff [3] [s⁻¹] | kon [3] [M⁻¹ s⁻¹] | t1/2 [3] [min] | 100 nM hIL-36R-Trap-mFc Bound (RU) [4] [RU] | Kd [4] [nM] | koff [4] [s⁻¹] | kon [4] [M⁻¹ s⁻¹] | t1/2 [4] [min] | Binder | also measured
167 | 0.173 | 9.97e-05 | 575000 | 116 | 202 | 0.212 | 0.000103 | 485000 | 113 | 235 | 0.243 | 0.00015 | 616000 | 77 | 281 | 0.374 | 0.000196 | 523000 | 59 | H4H14757P (antibody, human IgG4 S228P, kappa, V domains shown, Fully human anti-IL-36R antibody) VH: EVQLVESGGGLVQPGRSLRLSCTASGFTFDDYAMHWVRQAPGKGLEWVSGIRWNGGSIGYVDSVKGRFTISRDNAKKSLHLQMNSLKTEDTALYYCAKDIGDILTGFYGEYGMDVWGQGTTVTVSS VL: DIQMTQSPSSLSASEGDRVTITCRASQSISSYLNWYQQKAGKAPNLLIYAASSLQSGVPSRFSGSGSGTEYTLTISSLQPEDFATYYCQQSYIIPYTFGQGTKLEIKR | 100 nM Human IL-36R-MMH Bound (RU) [5]: 98 RU; koff [5]: 0.000887 s⁻¹; t1/2 [5]: 13 min; 100 nM Human IL-36R-MMH Bound (RU) [6]: 105 RU; koff [6]: 0.000597 s⁻¹; t1/2 [6]: 19 min; 100 nM hIL-36R-MMH Bound (RU) [7]: 109 RU; koff [7]: 0.0026 s⁻¹; t1/2 [7]: 4 min; 100 nM hIL-36R-MMH Bound (RU) [8]: 113 RU; koff [8]: 0.00129 s⁻¹; t1/2 [8]: 9 min
10 | 5.79 | 0.000323 | 55800 | 36 | 60 | 4.45 | 0.000201 | 45200 | 57 | 12 | 6.43 | 0.00045 | 69900 | 26 | 78 | 9.77 | 0.000514 | 52600 | 22 | H4H14731P (antibody, human IgG4 S228P, kappa, V domains shown, Fully human anti-IL-36R antibody) VH: QLQLQESGPGLVKPSETLSLTCTVSGGSISSSNYYWGWIRQPPGKRLEWIGSIYYSGSTYYNPSLKTRVTISVDTSKNQFSLKLTSVTAADTAVYYCAREEAAALTHFDFWGQGTLVTVSS VL: DIQMTQSPSSLSASVGDRVTITCRASQSISNYLNWYQQKPGKAPKLLIFAASSLQSGVPSRFSGSGSGTDFTLTISSLQPEDFATYYCQHSHSSHPITFGQGTRLEIKR | 100 nM Human IL-36R-MMH Bound (RU) [5]: 43 RU; koff [5]: 0.000679 s⁻¹; t1/2 [5]: 17 min; 100 nM Human IL-36R-MMH Bound (RU) [6]: 65 RU; koff [6]: 0.000553 s⁻¹; t1/2 [6]: 21 min; 100 nM hIL-36R-MMH Bound (RU) [7]: 84 RU; koff [7]: 0.00201 s⁻¹; t1/2 [7]: 6 min; 100 nM hIL-36R-MMH Bound (RU) [8]: 91 RU; koff [8]: 0.00108 s⁻¹; t1/2 [8]: 11 min
77 | 1.63 | 0.000101 | 62200 | 114 | 85 | 2.24 | 0.00011 | 48900 | 105 | 96 | 2.31 | 0.000122 | 52700 | 95 | 99 | 2.96 | 0.000143 | 48400 | 81 | H4H14734P2 (antibody, human IgG4 S228P, kappa, V domains shown, Fully human anti-IL-36R antibody; also called H14H14734P2) VH: EVQLVESGGGLVKPGGSLRLSCAASGFIFSNAWMNWVRQAPGKGLAWVGRIKTETDGGTTDYAAPVKGRFTISRDDSKNTLYLQMNSVKTEDTAVYYCTGGYSYGDDSSSWNEGYYYYGMDVWGQGTTVTVSS VL: not shown | 100 nM Human IL-36R-MMH Bound (RU) [5]: 18 RU; koff [5]: 0.000787 s⁻¹; t1/2 [5]: 15 min; 100 nM Human IL-36R-MMH Bound (RU) [6]: 20 RU; koff [6]: 0.000738 s⁻¹; t1/2 [6]: 16 min; 100 nM hIL-36R-MMH Bound (RU) [7]: 17 RU; koff [7]: 0.00169 s⁻¹; t1/2 [7]: 7 min; 100 nM hIL-36R-MMH Bound (RU) [8]: 20 RU; koff [8]: 0.00121 s⁻¹; t1/2 [8]: 10 min
145 | 1.4 | 0.000797 | 570000 | 14 | 161 | 2.95 | 0.00136 | 462000 | 8 | 195 | 2 | 0.00127 | 635000 | 9 | 212 | 3.63 | 0.00182 | 501000 | 6 | H4H14732P2 (antibody, human IgG4 S228P, kappa, V domains shown, Fully human anti-IL-36R antibody) VH: EVQLVESGGGLVQPGRSLRLSCAASGFTFDDYAMHWVRQAPGKGLEWVSGINWAGYNIDYADSVKGRFTISRDNAKNSLYLQMNSLRAEDTALYYCAKDMRGFSYGFPFDYWGQGTLVTVSS VL: not shown | 100 nM Human IL-36R-MMH Bound (RU) [5]: 28 RU; koff [5]: 0.000918 s⁻¹; t1/2 [5]: 13 min; 100 nM Human IL-36R-MMH Bound (RU) [6]: 32 RU; koff [6]: 0.000865 s⁻¹; t1/2 [6]: 13 min; 100 nM hIL-36R-MMH Bound (RU) [7]: 36 RU; koff [7]: 0.00123 s⁻¹; t1/2 [7]: 9 min; 100 nM hIL-36R-MMH Bound (RU) [8]: 40 RU; koff [8]: 0.0011 s⁻¹; t1/2 [8]: 10 min
